{
  "source": "patent US8394607B2",
  "about": "“Anti-CD22 antibodies and immunoconjugates and methods of use” (Genentech, Inc., priority 2006, dated 2013)",
  "key": {"[1]": {"molecular_target": "T1, human CD22-beta-ECD-His tagged soluble antigen (Homo sapiens, UniProt P20273, A486R/Y639H)", "T1 sequence (P20273 22-681 A486R/Y639H)": "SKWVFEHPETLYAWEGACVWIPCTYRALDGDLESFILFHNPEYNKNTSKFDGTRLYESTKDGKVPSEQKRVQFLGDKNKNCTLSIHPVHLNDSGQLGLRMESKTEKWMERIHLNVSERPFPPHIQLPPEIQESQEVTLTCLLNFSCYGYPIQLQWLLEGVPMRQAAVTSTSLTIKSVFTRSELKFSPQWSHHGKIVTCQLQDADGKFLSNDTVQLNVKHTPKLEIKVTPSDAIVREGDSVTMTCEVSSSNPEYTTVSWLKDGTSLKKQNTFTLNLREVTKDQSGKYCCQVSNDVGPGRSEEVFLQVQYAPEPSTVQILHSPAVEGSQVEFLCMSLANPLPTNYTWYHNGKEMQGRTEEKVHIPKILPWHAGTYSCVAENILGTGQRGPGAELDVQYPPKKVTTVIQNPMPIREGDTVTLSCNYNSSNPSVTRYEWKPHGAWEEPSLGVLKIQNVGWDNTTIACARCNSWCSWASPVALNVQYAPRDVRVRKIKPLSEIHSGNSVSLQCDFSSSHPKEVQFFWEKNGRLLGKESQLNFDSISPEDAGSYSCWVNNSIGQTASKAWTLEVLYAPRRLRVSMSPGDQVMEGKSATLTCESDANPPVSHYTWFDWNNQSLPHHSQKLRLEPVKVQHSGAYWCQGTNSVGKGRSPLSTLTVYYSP", "experiment": "BIACORE surface plasmon resonance binding to soluble CD22 ECD", "conditions": "BIACORE 3000, 25° C., antibody coupled to chip, soluble CD22 ECD injected; one-to-one Langmuir model", "protocol": "The binding affinity of murine and humanized 10F4 antibody for soluble CD22 extracellular domain (ECD) was determined by surface plasmon resonance measurement using a BIACORE® 3000 system (Biacore, Inc., Piscataway, N.J.). Briefly, carboxymethylated dextran biosensor chips (CMS, Biacore Inc.) were activated with N-ethyl-N′-(3-dimethylaminopropyl)-carbodiimide hydrochloride (EDC) and N-hydroxysuccinimide (NHS) according to the supplier's instructions. These activated chips were coated with anti-CD22 IgG1 antibody 10F4 (murine or humanized) by dilution to 5 μg/ml with 10 mM sodium acetate, pH 4.8, before injection at a flow rate of 5 μl/minute to achieve approximately 500 response units (RU) of coupled antibody. Next, 1M ethanolamine was injected to block unreacted groups. […] Association rates (kon) and dissociation rates (koff) were calculated using a simple one-to-one Langmuir binding model (BIAevaluation Software version 3.2). The equilibrium dissociation constant (Kd) was calculated as the ratio koff/kon. Anti-CD22 antibody, RFB4, was used as a control (Chemicon International, Inc., Temecula, Calif., catalog no. CBL147)."}, "human CD22": {"test_system": "human CD22", "sequence (P20273 20-240 limits assumed)": "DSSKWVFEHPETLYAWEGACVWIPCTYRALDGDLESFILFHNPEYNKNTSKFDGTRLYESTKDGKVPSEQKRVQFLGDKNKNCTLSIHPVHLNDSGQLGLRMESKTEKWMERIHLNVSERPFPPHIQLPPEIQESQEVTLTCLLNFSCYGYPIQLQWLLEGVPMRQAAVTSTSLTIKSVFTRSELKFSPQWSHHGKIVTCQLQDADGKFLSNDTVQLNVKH", "experiment": "ELISA plate assays and FACS cell-based assays for selection of hybridoma antibodies", "type": "binding", "protocol": "Murine monoclonal antibodies capable of specifically binding human CD22 was prepared. BALB/c female mice, age six weeks, were immunized in their foot pads with purified human CD22 his-8 tagged extracellular domain lacking domains 3 and 4 (SEQ ID NO:30 (ECD) plus the sequence […] at the C-terminus) or CD22 his-8 tagged extracellular domain comprising domains 1-7 (SEQ ID NO:28 (ECD) plus the above His sequence tag) in Ribi's adjuvant. Subsequent injections were performed in the same manner at one and three weeks after the initial immunizations. […]\nELISA-based assays: Anti-CD22 antibody screening by ELISA is performed as follows, with all incubations done at room temperature. […] Data is obtained by reading the plates in an automated ELISA plate reader at an absorbance of 490 nm.\nCHO cells expressing human CD22 on their surface were incubated with anti-CD22 hybridoma supernatant in 100 μl FACS buffer (0.1% BSA, 10 mM sodium azide in PBS, pH 7.4) for 30 minutes at 4° C. followed by one wash with FACS buffer. The amount of anti-CD22 binding was determined by incubating an aliquot of the antibody/cell mixture with a polyclonal FITC conjugated goat or rabbit anti-mouse IgG (Accurate Chem. Co., Westbury, N.Y.) (for murine test antibodies) or goat or rabbit anti-human IgG (for humanized antibodies) for 30 minutes at 4° C. followed by three washes with FACS buffer."}, "[2]": {"test_system": "human CD22 (CD22beta) lacking domain 1, domain 2, or domains 3 and 4", "experiment": "Epitope mapping by flow cytometry on CHO cells expressing CD22 domain deletion variants", "type": "binding", "protocol": "(§1) The epitopes of CD22 to which 10F4.4.1 and 5E8.1.8 antibodies bound were determined according to the following procedures. CD22 sequences lacking various of the seven immunoglobulin-like domains of the major CD22 isoform (CD22beta) were cloned and transformed into cells for stable expression. For example, CD22 variants lacking domain 1 (Δ1), domain 2 (Δ2), or domains 3 and 4 (Δ3,4) were cloned, transformed into CHO cells, and expressed on the cells. Control cells expressed CD22beta. Deletions were performed using Stratagene QuikChange XL™ reagent kit. Deletion of domain 1 was performed by deletion of amino acids 22-138; deletion of domain 2 was performed by deletion of amino acids 139-242; and deleted domains 3 and 4 were available as the minor isoform CD22alpha (deletion of amino acids 241-417). All amino acid numbers refer to the numbering of full length precursor CD22beta by Wilson, G. L. et al. (see FIG. 1 in Wilson, G. L. et al., J. Exp. Med. 173:137-146 (1991)). FIG. 14 is a diagram of the deleted domains. Binding was determined by flow cytometry using an isotype control. Binding of 10F4.4.1 was detected using goat anti-mouse IgG Alexa 488. Binding of 5E8.1.8 was detected using biotinylated goat anti-mouse IgG plus streptavidin PE. […] Neither bound CD22 lacking domain 1 or domain 2, and both bound CD22 comprising domains 1 and 2, but lacking domains 3 and 4."}, "[3]": {"molecular_target": "T2, human CD22 (CD22beta) lacking domain 1, domain 2, or domains 3 and 4 (Homo sapiens, UniProt P20273)", "T2 construct": "expressed in transfected cells", "T2 sequence (P20273 22-670 isoform P20273-2)": "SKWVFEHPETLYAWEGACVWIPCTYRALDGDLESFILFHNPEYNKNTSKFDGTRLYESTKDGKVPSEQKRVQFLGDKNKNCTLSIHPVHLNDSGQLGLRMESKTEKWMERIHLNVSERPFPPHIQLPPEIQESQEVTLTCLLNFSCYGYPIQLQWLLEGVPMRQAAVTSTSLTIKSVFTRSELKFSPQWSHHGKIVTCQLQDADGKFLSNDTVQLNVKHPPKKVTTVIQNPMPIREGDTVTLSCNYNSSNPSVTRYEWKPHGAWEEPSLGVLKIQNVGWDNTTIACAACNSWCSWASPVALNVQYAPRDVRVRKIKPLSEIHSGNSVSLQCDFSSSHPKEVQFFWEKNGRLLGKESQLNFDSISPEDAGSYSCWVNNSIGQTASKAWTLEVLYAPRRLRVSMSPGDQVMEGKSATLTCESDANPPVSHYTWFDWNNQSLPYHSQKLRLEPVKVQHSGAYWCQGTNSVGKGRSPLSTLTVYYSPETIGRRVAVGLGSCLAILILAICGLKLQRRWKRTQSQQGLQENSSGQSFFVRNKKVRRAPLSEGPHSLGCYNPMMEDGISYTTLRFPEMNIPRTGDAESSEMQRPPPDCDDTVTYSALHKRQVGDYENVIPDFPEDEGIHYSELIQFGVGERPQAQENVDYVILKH", "experiment": "Epitope mapping by flow cytometry on CHO cells expressing CD22 domain deletion variants", "type": "binding", "conditions": "flow cytometry, CHO cells", "protocol": "as §1"}},
  "data": [
    {"molecule": "Mu 10F4.4.1: murine anti-human CD22 monoclonal antibody, hybridoma ATCC PTA-7621 (antibody, V domains shown) VH: QVQLQQSGPELVKPGASVKISCKASGYEFSRSWMNWVKQRPGQGREWIGRIYPGDGDTNYSGKFKGKATLTADKSSSTAYMQLSSLTSVDSAVYFCARDGSSWDWYFDVWGAGTTVTVSS VL: DILMTQTPLSLPVSLGDQASISCRSSQSIVHSNGNTFLEWYLQKPGQSPKLLIYKVSNRFSGVPDRFSGSGSGTDFTLKISRVEAEDLGVYYCFQGSQFPYTFGGGTKVEIK", "values": [
      {"measurement": "koff/10^−4", "setting": "[1]", "value": 2.8},
      {"measurement": "kon/10^5", "setting": "[1]", "value": 0.19},
      {"measurement": "specific binding to human CD22", "setting": "human CD22", "value": "bind specifically to human CD22"},
      {"measurement": "binding to CD22 lacking domain 1 or domain 2", "setting": "[2]; flow cytometry, CHO cells", "value": "Neither bound"},
      {"measurement": "epitope (CD22 domains bound)", "setting": "[2]; within amino acid 22 to amino acid 240 of SEQ ID NO:27", "value": "domains 1 and 2 of human CD22"},
      {"measurement": "binding to CD22 comprising domains 1 and 2 but lacking domains 3 and 4", "setting": "[3]", "value": "both bound"}
    ]}
  ]
}
